Data reported in patent US12508302B2, “Pharmaceutical composition providing mucolytic effect” (FRIMLINE PRIVATE LIMITED, priority 2022, dated 2025).

System: tracheobronchial secretion in rats
Test: Mucolytic activity in rats: tracheobronchial secretion of fluorescein sodium (FINa)
Format: in vivo, rat (Swiss Albino Rats)
Details: for Percentage (%) Enhancement of FINa secretion compared to Normal: versus normal group (G1)
Description: The effect of the compositions of the present invention was studied in animals. For this study, screening effect of synergistic combination of compositions/formulations comprising N-Acetyl-L-Cysteine, Lactoferrin and additional active ingredients for mucolytic activity in rat was performed. The following trials were carried out:
Eighty-Four (84) rats including male and female (Swiss Albino Rats) divided into 14 groups (6 per group) were maintained in animal house in a light/dark atmosphere based on a 12 hour cycle having temperature and relative humidity in the range of 19 to 25±2° C. and 30-70%, respectively. To maintain the appropriate conditions, temperature and relative humidity were recorded three times daily. All animals were acclimatized for a minimum period of five days. Animals were maintained in the test setup for minimum 30 minutes once during the acclimatization period to reduce the stress. Animals were weighed on the day of receipt and observed daily for abnormalities if any. Detailed records of acclimatization were also maintained. Rats were housed 3 per cage in clean, sterilized Polypropylene cages. During complete experiments, animals were supplied with the standard certified rat pellet feed and drinking water treated by reverse osmosis ad libitum.
In order to evaluate the mucolytic activity in rats, eighty-four (84) rats were screened and divided into Fourteen (14) groups. For a comparative analysis, groups were divided and treated as below:
Tracheobronchial secretion in rats, expressed by the amount of fluorescein sodium (FINa) dye excreted into the respiratory tract, was measured by modification of methods published earlier.
Lactoferrin, Carotenoid, N-Acetyl-L-Cysteine or their combinations (G4-G14) were suspended in 1% Acacia. […]
The tracheobronchial lavage fluid (4.9±0.1 ml) was centrifuged (3500 rpm for 10 minutes) and the supernatant was transferred to STP B & L tubes. The fluorescence intensity of the supernatant was measured with a Genesys 20 spectrophotometer set at a wavelength of 510 nm (emission).

B1: Lactoferrin (protein, UniProt P02788 20-710, looked up)
Lactotransferrin: GRRRSVQWCAVSQPEATKCFQWQRNMRKVRGPPVSCIKRDSPIQCIQAIAENRADAVTLDGGFIYEAGLAPYKLRPVAAEVYGTERQPRTHYYAVAVVKKGGSFQLNELQGLKSCHTGLRRTAGWNVPIGTLRPFLNWTGPPEPIEAAVARFFSASCVPGADKGQFPNLCRLCAGTGENKCAFSSQEPYFSYSGAFKCLRDGAGDVAFIRESTVFEDLSDEAERDEYELLCPDNTRKPVDKFKDCHLARVPSHAVVARSVNGKEDAIWNLLRQAQEKFGKDKSPKFQLFGSPSGQKDLLFKDSAIGFSRVPPRIDSGLYLGSGYFTAIQNLRKSEEEVAARRARVVWCAVGEQELRKCNQWSGLSEGSVTCSSASTTEDCIALVLKGEADAMSLDGGYVYTAGKCGLVPVLAENYKSQQSSDPDPNCVDRPVEGYLAVAVVRRSDTSLTWNSVKGKKSCHTAVDRTAGWNIPMGLLFNQTGSCKFDEYFSQSCAPGSDPRSNLCALCIGDEQGENKCVPNSNERYYGYTGAFRCLAENAGDVAFVKDVTVLQNTDGNNNEAWAKDLKLADFALLCLDGKRKPVTEARSCHLAMAPNHAVVSRMDKVERLKQVLLHQQAKFGRNGSDCPDKFCLFQSETKNLLFNDNTECLARLHGKTTYEKYLGPQYVAGITNLKKCSTSPLLEACEFLRK
notes: multifunctional globular glycoprotein of the transferrin family, molecular mass about 80 kDa
Fluorescein Sodium (FINa) Secretion (dosed 30 minutes before i.v. FINa 300 mg/kg, tracheobronchial lavage one hour after administration, doses as Table 1, mean±SEM): 1.79 ± 0.04 μg/100 g/h | Percentage (%) Enhancement of FINa secretion compared to Normal (doses as Table 1): 25.17 ± 1% | Percentage (%) Enhancement of FINa secretion compared to Normal (doses as Table 1, listed as Lactoferrin): 25.17%
